Source: PMC10897367, “Functional and structural asymmetry suggest a unifying principle for catalysis in membrane-bound pyrophosphatases” (EMBO Reports, 2024)

B1: K+-dependent Na+-pumping membrane-bound pyrophosphatase from Thermotoga maritima (TmPPase), wild type (enzyme, UniProt Q9S5X0 1-726, looked up)
chain: MYVAALFFLIPLVALGFAAANFAAVVRKPEGTERMKEISSYIRSGADSFLAHETKAIFKVAIVIAILLMIFTTWQTGVAFLLGAVMSASAGIVGMKMATRANVRVAEAARTTKKIGPALKVAYQGGSVMGLSVGGFALLGLVLVYLIFGKWMGQVDNLNIYTNWLGINFVPFAMTVSGYALGCSIIAMFDRVGGGVYTKAADMAADLVGKTELNLPEDDPRNPATIADNVGDNVGDVAGLGADLLESFVGAIVSSIILASYMFPIYVQKIGENLVHQVPKETIQALISYPIFFALVGLGCSMLGILYVIVKKPSDNPQRELNISLWTSALLTVVLTAFLTYFYLKDLQGLDVVGFRFGAISPWFSAIIGIFSGILIGFWAEYYTSYRYKPTQFLSKSSIEGTGMVISNGLSLGMKSVFPPTLTLVLGILFADYFAGLYGVAIAALGMLSFVATSVSVDSYGPIADNAGGISEMCELDPEVRKITDHLDAVGNTTAAIGKGFAIGSAIFAALSLFASYMFSQISPSDIGKPPSLVLLLNMLDARVIAGALLGAAITYYFSGYLISAVTKAAMKMVDEIRRQAREIPGLLEGKAKPDYNRCIEITSDNALKQMGYPAFIAILTPLVTGFLLGAEFVGGVLIGTVLSGAMLAILTANSGGAWDNAKKYLEAGNLEGYGKGSEPHKALVIGDTVGDPLKDTVGPSLDILIKIMSVVSVIAVSIFKHVHLF
notes: No tag cleavage is mentioned; also called K+-dependent Na+-PPase; Na+-PPase; source: S. cerevisiae BJ1991, purified (hot-solve solubilisation, nickel-NTA; OGNG)
B2: K+-independent H+-pumping membrane-bound pyrophosphatase from Pyrobaculum aerophilum (PaPPase), wild type (enzyme, UniProt Q8ZWI8 1-721, looked up)
chain: MNMISYALLGVILGISGVIYAVYLAVWVLRQDPGNEKMRFISQAIATGARAYLFRQYRTLAVLLVILAVLILVAIDMPRRTFGLTALAFIVGALGSMLAGYLGMYVTTRSASRVAQAAATGGMGKALLVSWRAGAVMGLSLASIALLLISGFYLVFRSVLPDDWAVPLVALGFGASLVTLFMRVGGGIYTKAADLGADLVGKVEAGIPEDDPRNPGVIADNVGDNVGDVAGMAADVYESYIVTVTAAIFLAAILGLPTQFIEAIILFAALALVATFAGVNLLKTTGVKHPLSSISLAIYATIGLSVVLFFIGAFTLGLDSTKALALAATTSLGAVIAPLIVKITDYYTSYNYGPVRKIAEQAKISPATVIITGYGVGLMSAIPVIAVIVAVLGISYMIGYYTVPVSGFGELSKYLAGIFGTAMASVGLLVVAGIIITADSYGPVSDNAGGVVEMAGLPDEVREITDVLDSVGNTTKATTKGYAIASAALAALVLFIALIFEIVYSASKILGKGIVDMISESLSGLQLINANVLIGAFLGVALVYFFSSRTLEAVGRTAMEIVEEIRRQFREKPGILEWKEQPDYARVVDIATRRALGEFLIPGLAAIVLPLITGLLLGWNALAGLIMGAIVAGVPRALLMANAGGAWDNAKKYIEIQGLKKTEMHKAAVIGDTVGDPMKDTVGPSLNPLIKVLNTLSVVFTYVIVSTNIALGIWPSGLLPF
notes: No tag cleavage is mentioned; also called PaPPase:Mg5IDP; K+-independent H+-PPase; source: S. cerevisiae BJ1991, purified (hot-solve solubilisation, nickel-NTA; DM for crystals)

Key:
[1] = biological target: the molecule itself; test: crystal structure; time-resolved cryo-trapping: TmPPase in OGNG crystallised with K4PPi and without Na+, soaked in a Na+ trigger solution for 0-3600 s, flash cooled; molecular replacement with 4AV3
[2] = biological target: the molecule itself; test: crystal structure; PaPPase in DM with 2 mM IDP, vapour diffusion, 30-33% PEG 400, 0.1 M MES pH 6.5, 0.05 M LiSO4, 0.05 M NaCl, 20 °C; eight datasets combined, molecular replacement with a 5LZQ-based model

Protein	binding result [1]	binding result [2]
B1	binds	–
B2	–	binds
